The target of test [1] is T1, cynomolgus BDCA2 (cynomolgus monkey, UniProt A0A2K5UWP4 1-212).
T1 construct: whole, on cells; also called Cyno BDCA2; cynoBDCA2
T1 sequence: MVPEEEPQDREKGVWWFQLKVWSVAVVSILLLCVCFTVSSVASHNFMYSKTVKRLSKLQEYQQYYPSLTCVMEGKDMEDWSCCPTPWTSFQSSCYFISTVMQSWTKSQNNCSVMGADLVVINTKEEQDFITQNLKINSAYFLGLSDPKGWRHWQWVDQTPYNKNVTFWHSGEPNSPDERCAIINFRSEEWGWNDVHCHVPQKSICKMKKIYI
The test is described as follows: FACS, 293F-cynoBDCA2 cells.

For test [2], the target named is T2, human BDCA2 (human, UniProt Q8WTT0 1-213).
T2 construct: whole, on cells; also called hBDCA2; Blood dendritic cell antigen 2
T2 sequence (looked up): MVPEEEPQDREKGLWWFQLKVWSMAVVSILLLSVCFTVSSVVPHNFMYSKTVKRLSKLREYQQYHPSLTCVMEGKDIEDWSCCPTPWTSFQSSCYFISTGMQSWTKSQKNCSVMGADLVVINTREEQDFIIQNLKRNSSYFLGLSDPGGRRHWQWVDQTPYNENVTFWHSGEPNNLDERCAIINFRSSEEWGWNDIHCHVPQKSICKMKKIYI
In words: FACS, CHOK1-humanBDCA2 cells. The protocol:
(§1) The cells were recovered and resuspended to 2×10⁶/mL with FACS buffer (PBS+2% FBS). The resuspended cells were added to 3799 cell plates at 100 μL/well, and the supernatant was discarded after centrifugation at 300 g. […] The cells were incubated at 4° C. for 1 h. The incubated cells were centrifuged at […] for 5 min and washed twice with FACS buffer. 100 μL Goat anti-Human IgG (H+L) Cross-Adsorbed Secondary Antibody, Alexa Fluor 488 (Sigma, A11013; 1:1000) secondary antibody was added, washed twice with FACS buffer after incubation at 4° C. for 1 h. The cells were resuspended with PBS, then the fluorescence signal of antibodies bound to cell surface was analyzed with FACS (BD FACS CantoTM II) instrument and curves were fitted with GraphPad Prism6 to calculate EC₅₀ values for antibodies binding to BDCA2 antigen.

The target of test [3] is T2, human BDCA2. In words: cell-based or functional assay.
Test [4] deals with T2, human BDCA2. In words: cell-based or functional assay. This is another data set of the same source.
In test [5] the target is T1, cynomolgus BDCA2. The test is described as follows: FACS, 293F-cynoBDCA2 cells. The protocol:
as §1
The source holds these as a separate data set.

The target in test [6] is T2, human BDCA2. In words: FACS, CHOK1-humanBDCA2 cells. The protocol: as §1
The source holds these as a separate data set.

A further test deals with T3, Recombinant Human BDCA2 (human, UniProt Q8WTT0 45-213, limits assumed).
T3 construct: also called hBDCA2 (SPR analyte); human BDCA2 antigen
T3 sequence (looked up): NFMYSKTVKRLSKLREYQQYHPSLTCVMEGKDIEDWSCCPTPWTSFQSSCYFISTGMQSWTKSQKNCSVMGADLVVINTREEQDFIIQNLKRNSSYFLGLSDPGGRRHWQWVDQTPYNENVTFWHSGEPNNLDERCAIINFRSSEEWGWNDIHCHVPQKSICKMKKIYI
The test is described as follows: SPR (BIAcore), antibody captured by anti-human IgG (Fc), hBDCA2 as analyte, 1:1 model. The procedure:
Then 1 M ethanolamine was injected at 10 μL/min flow rate for 420 seconds, and the excess active carboxyl groups on chip were blocked. The humanized antibodies were injected into a detection channel flow cell at flow rate of 10 μL/min for 60 s for capture after diluting to 1 μg/mL using running buffer. […] The sample hBDCA2 to be tested of each concentration gradient was injected into the detection channel at 30 μL/min flow rate, two samples at 0 concentration were used to remove background signal. The binding and dissociation times between antigen and antibody were 180 and 400 sec, respectively. An analysis of data was performed using Biacore Insight Evaluation Software (Version 2.0. 15.12933). A 1:1 binding model was selected for curve fitting and kinetic parameters were calculated after subtraction of signal of the reference channel (flow cell 1) and at 0 concentration.

The target in test [7] is T2, human BDCA2. In words: FACS on CHOK1-hBDCA2 cells; EC50 table beside the plot, unit from the x axis (nM) [continued) c.]. The procedure: (§2) The cells were recovered and resuspended to 2×10⁶/mL with FACS buffer (PBS+2% FBS). The cells were added to 3799 cell plates (Corning) at 100 μL/well, and the supernatant was discarded after centrifugation at 300 g. The antibodies were serially diluted with FACS buffer (Id.), the diluted antibodies were added to centrifuged cells and the cells were resuspended. The cells were incubated at 4° C. for 1 h. The incubated cells were centrifuged at 300 g for 5 min and washed twice with FACS buffer. 100 μL […] anti-Human IgG (H+L) Cross-Adsorbed Secondary Antibody-Alexa Fluor 488 (Sigma, A11013; 1:1000) secondary antibody was added, washed twice with FACS buffer after incubation at 4° C. for 1 h, resuspended with PBS, analyzed with FACS (BD FACS CantoTM II) instrument and curve fitted with GraphPad Prism6, and EC₅₀ values were calculated.

For test [8], the target named is T2, human BDCA2. The test is described as follows: FACS on CHOK1-hBDCA2 cells; EC50 table under the plot, unit from the x axis (nM). The procedure:
as §2

The text below walks through data of patent US20250346673A1 (DUALITY BIOLOGICS SUZHOU, published 2025).

Changes are numbered by the printed parent chain.

B1: Hu005-07 (antibody, IgG1, V domains shown)
VH: QVQLQESGPGLVKPSETLSLTCTVSGGSITNYGVHWIRQPPGKGLEWIGVIWSGESTDYDAAFISRVTISKDNSKNQVSLKLSSVTAADTAVYYCARRRSHYYGYVMDYWGQGTTVTVSS
VL: DIVLTQSPASLAVSPGQRATITCKASQSIDYDAIGYLNWYQHKPGQPPKLLIYAASNLESGVPARFSGSGSGTDFTLTINPVEANDTANYYCQQSNEDPPTFGQGTKLEIK
notes: Humanized IgG1; also called hu005-07(BM5)
Consider B1, for which the binding result in the test with cynomolgus BDCA2 [1] is reported as “binds”. The molecule further yielded a 50% effective concentration (EC50) with human BDCA2 [2] of 2000 pM.

B2: Hu005-04 (antibody, human IgG1, kappa, V domains shown)
VH: B1 VH with E6Q, I29L
VL: DIVLTQSPASLAVSPGQRATITCKASQSIDYDAIGYLNWYQQKPGQPPKLLIYAASNLESGVPARFSGSGSGTDFTLTINPVEANDTANYYCQQSNEDPPTFGQGTKLEIKR
notes: Humanized IgG1; also called hu005-04(BM6)
For B2, in the test with cynomolgus BDCA2 [1], the binding result was “binds”. The molecule further showed an EC50 with human BDCA2 [2] of 2300 pM.

B3: Hu005-24 (antibody, IgG1, V domains shown)
VH: B1 VH with E6Q, I29L
VL: DIQMTQSPSSLSASVGDRVTITCKASQSIDYDAIGYLNWYQQKPGKAPKLLIYAASNLESGVPSRFSGSGSGTDFTLTISSLQPEDFATYYCQQSNEDPPTFGQGTKLEIK
notes: Humanized IgG1; also called hu005-24(BM6)
B3: the binding result with cynomolgus BDCA2 [1] is recorded as “binds”. The same molecule registered an EC50 with human BDCA2 [2] of 1900 pM.

B4: Hu005-03 (antibody, IgG1, V domains shown)
VH: B1 VH
VL: B1 VL with H42Q
notes: Humanized IgG1; also called hu005-03(BM4)
In the case of B4, the binding result in the test with cynomolgus BDCA2 [1] is given as “binds”. In the test with human BDCA2 [2], this molecule had an EC50 of 2100 pM.

B5: Hu005-08 (antibody, IgG1, V domains shown)
VH: B1 VH with E6Q, I29L
VL: B1 VL
notes: Humanized IgG1; also called hu005-08(BM7)
On to B5, for which the binding result in the test with cynomolgus BDCA2 [1] is given as “binds”. Further, the concentration for a half-maximal effect (EC50) in the test with human BDCA2 [2] came to 2300 pM.

B6: mab033c (antibody, V domains shown)
VH: EVQMVESGGDLVKPGDSLKLSCAASGFTFRSYGMSWVRQTPDKRLEWVATISSGDSYTYYPDSVKGRFTISRDNAKNTLYLQMSSLKSEDTALYYCARQIYYDYAYYFDFWGQGTTLTVSS
VL: DIVLTQSPASLAVSLGQRATISCRASESVSFRTSHLMHWYQQKPGQPPKLLIYGASNLESGVPARFSGSGSETDFTLNIHPVEEEDAAAYFCQQSIEDPPTFGGGTKLEIK
In the case of B6, the “IC50, inhibition of IFNα secretion, CpG-A stimulated human PBMC” value in the test with human BDCA2 [3] amounted to 8.33 pM. Besides, the “EC50 (nM), inhibition of CpG-A stimulated IFNα release from human PBMC” value in the test with human BDCA2 [4] is 0.02 nM. In addition, the 50% effective concentration (EC50) was 560 pM in the test with cynomolgus BDCA2 [5], 260 pM in the test with human BDCA2 [6] and 277 pM in the test with human BDCA2 [7]. In addition, the dissociation constant Kd with Recombinant Human BDCA2 is 110 pM. In the test with Recombinant Human BDCA2, the koff was 7.67e-05 s⁻¹. In addition, in the test with Recombinant Human BDCA2, the kon was 698000 M⁻¹ s⁻¹.

B7: mab002c (antibody, V domains shown)
VH: QIQLVQSGPELKKPGETVKISCRASGYSFTDYSMHWVKQAPGKGLKWVGWINTETGEPTYADDFKGRFALSLETSATSAYLQINNLKNEDTATYFCARGGDGFPYWYFNVWGAGTTVTVSS
VL: DIVLTQSPTSLAVSLGQRTNISCRASQSVSTSSNSYIHWYQQKPGQPPKLLIKYASNLDSGVPARFSGSGSGTDFTLNIHPVEEEDTSTYYCQHSWEIPFTFGSGTKLEIK
B7 registered an EC50 in the test with human BDCA2 [8] of 1610 pM.

B8: mab016c (antibody, V domains shown)
VH: QVQLKQSGPGLVQPSQSLSITCTVSGFSLTSYGVHWVRQSPGKGLEWLGVIWSGESTDYDAAFISRLSISKDNSKSQVFFRMNSLQADDSAIYYCARRRSHYYGYVMDYWGQGTSVTVSS
VL: DIVLTQSPASLAVSLGQRATISCKASQSVDYDGVGYLNWYQHKPGQPPKLLIYAASNLESGIPARFSGSGSGTDFTLNIHPVEEEDAATYYCQQSNEDPPTFGSGTKLEIK
B8 yielded an EC50 with human BDCA2 [8] of 977 pM.

B9: mab005c (antibody, V domains shown)
VH: B8 VH with S31N, R81K
VL: B8 VL with V29I, V34I
For the molecule B9, the “IC50, inhibition of IFNα secretion, CpG-A stimulated human PBMC” value with human BDCA2 [3] was determined as 8.36 pM. For the same molecule, the results for the EC50 with human BDCA2 [2] and in the test with human BDCA2 [8] were 2200 pM and 964 pM, respectively.
